Target: T1, CTLA-4 (Homo sapiens, UniProt P16410)
T1 sequence (P16410 36-223): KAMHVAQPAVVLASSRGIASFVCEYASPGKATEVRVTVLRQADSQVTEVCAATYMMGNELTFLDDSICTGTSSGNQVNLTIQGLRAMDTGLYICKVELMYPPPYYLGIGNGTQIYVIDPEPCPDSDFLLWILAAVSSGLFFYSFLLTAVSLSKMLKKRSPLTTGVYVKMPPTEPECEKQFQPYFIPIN
Experiment: ELISA binding of clones after Affinity Maturation with random library (Tables 10, 11)
Method: After each round of Affinity Maturation, the cyclic peptide genes were recovered and subcloned into pET-Mal vector (FIG. 2) in the same manner as described above to perform base sequence analysis. For the 94 single colonies analyzed for sequence, E. coli transformants were inoculated into 100 μL of 2×YT medium containing ampicillin (final concentration 50 μg/mL), incubated at 37° C. for 3-5 hours (OD600=0.5-0.8), then added with IPTG (final concentration 0.5 mM) and incubated at 25° C. overnight. 10 μL of E. coli cultured medium was added with 90 μL of PBS and 40 μL of lysis reagent (20 μL BugBuster Protein Extraction Reagent (Novagen), 20 μL Lysozyme solution 2.5 mg/mL) to lyse E. coli cells for 1 hour at room temperature. The cell lysate was added with 40 μL of 12.5% skim milk solution (TBST) and blocked for 1 hour at room temperature. In parallel, antigen protein was immobilized overnight at 4° C. in 384-well plates at 100 ng/20 μL per well, and each well was washed twice with 100 μL/well of TBST, added with 100 μL/well of 5% skim milk solution (TBST) for blocking for 1 hour at room temperature, and washed twice with 100 μL/well of TBST to obtain antigen-immobilized plates. 20 μL/well of blocking-treated E. coli extract was added to the antigen-immobilized plates and gently stirred at room temperature using a plate mixer. After 1 hour, the plates were washed 5 times with 100 μL/well of TBST, 20 μL/well of anti-FLAG M2-HRP conjugate (1:2000 dilution, Sigma) was added and gently stirred on a plate mixer for 1 hour at room temperature. The plates were washed 5 times with 100 μL/well of TBST, and binding of cyclic peptides to the antigen was detected by 20 μL/well of chromogenic substrate (0.4 mg/mL 3,3′,5,5′-Tetramethyl-benzidine, 0.01% hydrogen peroxide). After 15 minutes of reaction at room temperature, the reaction was stopped with 20 μL/well of 2N HCl, and absorbance at 450 nm was measured using a plate reader (infinite F200: TECAN) (Table 5).
Oligo DNAs of a library were synthesized (see below), in which amino acid residues (positions 1, 4, 8, 10, +1 and +2) (corresponding to X1, […], X8, X10, X+1 and X+2) other than those essential or advantageous for CTLA-4 binding (2H, 3P, 5L, 6P, 7I, 9S, 11H, 12F) identified by alanine scanning were randomized (NNS).
Affinity Maturation was performed in the same manner as described above. The amount of biotinylated CTLA-4 immobilized on the magnetic beads was 10 pmol in the 1st round, 2 pmol in the 2nd round, and 1 pmol in the 3nd-5th rounds, respectively. The washing period was 2 hours for the 1st round, 19 hours for the 2nd round, 67 hours for the 3nd round, 140 hours for the 4th round, and 340 hours for the 5th round. Washing frequency was 1 time (2 hours) in the 1st round, 2 times (every 10 hours) in the 2nd round, 6 times (every 10 hours) in the 3rd round, 14 times (every 10 hours) in the 4th round, and 36 times (every 10 hours) in the 5th round.

[1] = CTLA-4 binding ELISA of clones after Affinity Maturation from random (NNS) library, signal/noise ratio, clones of 4th or 5th round
[2] = S/N ratio of CTLA-4 binding in ELISA, clones from 4th or 5th round of Affinity Maturation from random (NNS) library

Substance	ELISA S/N(SA) [1]	ELISA S/N(SA) [2]
C4m3127-4th-NNS6-16 (GGCWHPYLPIFSVHFCPR; C4m3127-4th-NNS6-16) [Clone C4m3127-4th-NNS6-16]	16.5	–
C4m3127-4th-NNS6-37 (GGCWHPVLPIRSIHFCGC; C4m3127-4th-NNS6-37) [Clone C4m3127-4th-NNS6-37]	–	3.5
C4m#19-5th2w-NNS6-27 (GGCFHPFLPIRSCHFCAR; C4m#19-5th2w-NNS6-27)	9.9	–
C4m#19-5th4w-NN6-83 (GGCLHPLLPILSVHFCPS; C4m#19-5th4w-NN6-83)	12.0	–
C4m#19-5th4w-NN6-68 (GGCLHPWLPIRSRHFCSR; C4m#19-5th4w-NN6-68)	24.7	–
C4m#19-5th4w-NN6-20 (GGCSHPQLPILSDHFCSA; C4m#19-5th4w-NN6-20)	30.6	–
C4m#19-5th4w-NN6-9 (GGCFHPYLPIRSWHFCGR; C4m#19-5th4w-NN6-9)	28.8	–
C4m#19-5th2w-NNS6-8 (GGCRHPFLPIFSLHFCAR; C4m#19-5th2w-NNS6-8)	16.5	–
C4m#19-5th4w-NN6-93 (GGCCHPWLPIVSTHFCGL; C4m#19-5th4w-NN6-93)	28.9	–
C4m#19-5th2w-NNS6-30 (GGCWHPFLPILSWHFCGR; C4m#19-5th2w-NNS6-30)	9.0	–
C4m#19-5th2w-NNS6-51 (GGCRHPFLPIVSLHFCPF; C4m#19-5th2w-NNS6-51)	15.8	–
C4m3127-4th-NNS6-19 (GGCMHPSLPIWSWHFCPH; C4m3127-4th-NNS6-19) [Clone C4m3127-4th-NNS6-19]	4.1	–
C4m3127-4th-NNS6-89 (GGCWHPFLPIFSAHFCMR; C4m3127-4th-NNS6-89) [Clone C4m3127-4th-NNS6-89]	6.6	–
C4m#19-5th2w-NNS6-66 (GGCRHPFLPIFSVHFCPF; C4m#19-5th2w-NNS6-66)	4.4	–
C4m#19-5th2w-NNS6-41 (GGCWHPVLPIRSDHFCCR; C4m#19-5th2w-NNS6-41)	–	3.1
C4m3127-4th-NNS6-70 (GGCSHPYLPIHSRHFCLS; C4m3127-4th-NNS6-70) [Clone C4m3127-4th-NNS6-70]	4.6	–
C4m#19-5th2w-NNS6-74 (GGCMHPFLPIRSWHFCSR; C4m#19-5th2w-NNS6-74)	7.0	–
C4m#19-5th2w-NNS6-87 (GGCLHPYLPIFSVHFCAL; C4m#19-5th2w-NNS6-87)	4.5	–
C4m#19-5th4w-NN6-80 (GGCRHPFLPIFSWHFCAV; C4m#19-5th4w-NN6-80)	3.8	–
C4m#19-5th4w-NN6-46-1 (GGCVHPALPIWSFHFCPS; C4m#19-5th4w-NN6-46-1)	14.2	–
C4m#19-5th4w-NN6-25 (GGCLHPVLPIRSRHFCPV; C4m#19-5th4w-NN6-25)	38.9	–
C4m3127-4th-NNS6-64 (GGCLHPYLPIVSSHFCPF; C4m3127-4th-NNS6-64) [Clone C4m3127-4th-NNS6-64]	12.9	–
C4m#19-5th2w-NNS6-14 (GGCWHPFLPIRSYHFCPW; C4m#19-5th2w-NNS6-14)	34.7	–

Second part, the substance after the results:

ELISA S/N(SA) [1]	ELISA S/N(SA) [2]	Substance
20.4	–	C4m3127-4th-NNS6-17 (GGCRHPVLPIVSLHFCPG; C4m3127-4th-NNS6-17) [Clone C4m3127-4th-NNS6-17]
16.1	–	C4m#19-5th4w-NN6-1 (GGCRHPYLPIFSAHFCRS; C4m#19-5th4w-NN6-1)
15.8	–	C4m#19-5th4w-NN6-45 (GGCRHPWLPIWSVHFCGV; C4m#19-5th4w-NN6-45)
12.8	–	C4m3127-4th-NNS6-79 (GGCLHPFLPIRSVHFCLR; C4m3127-4th-NNS6-79) [Clone C4m3127-4th-NNS6-79]
7.1	–	C4m3127-4th-NNS6-26 (GGCAHPALPIWSCHFCPF; C4m3127-4th-NNS6-26) [Clone C4m3127-4th-NNS6-26]
11.4	–	C4m#19-5th2w-NNS6-53 (GGCLHPWLPIRSFHFCGA; C4m#19-5th2w-NNS6-53)
12.8	–	C4m3127-4th-NNS6-80 (GGCGHPFLPIFSLHFCPR; C4m3127-4th-NNS6-80) [Clone C4m3127-4th-NNS6-80]
10.9	–	C4m3127-4th-NNS6-3 (GGCSHPFLPIWSVHFCGQ; C4m3127-4th-NNS6-3) [Clone C4m3127-4th-NNS6-3]
45.4	–	C4m#19-5th4w-NN6-67 (GGCLHPFLPIRSVHFCPR; C4m#19-5th4w-NN6-67)
12.5	–	C4m#19-5th4w-NN6-65 (GGCWHPFLPILSLHFCSR; C4m#19-5th4w-NN6-65)
39.9	–	C4m#19-5th4w-NN6-15 (GGCLHPFLPIRSVHFCPF; left off: large carriers; small tags and cut ends)
29.3	–	C4m#19-5th2w-NNS6-22 (GGCMHPFLPIQSVHFCSR; C4m#19-5th2w-NNS6-22)
23.0	–	C4m#19-5th4w-NN6-7 (GGCRHPFLPIWSWHFCPF; C4m#19-5th4w-NN6-7)
15.8	–	C4m3127-4th-NNS6-12 (GGCSHPFLPIRSRHFCPF; C4m3127-4th-NNS6-12) [Clone C4m3127-4th-NNS6-12]
28.3	–	C4m#19-5th2w-NNS6-55 (GGCMHPYLPIKSVHFCPL; C4m#19-5th2w-NNS6-55)
18.4	–	C4m#19-5th4w-NN6-2 (GGCWHPHLPIVSSHFCLF; C4m#19-5th4w-NN6-2)
13.7	–	C4m#19-5th4w-NN6-64 (GGCWHPVLPIRSVHFCCR; C4m#19-5th4w-NN6-64)

ELISA S/N(SA) [1]	ELISA S/N(SA) [2]	Substance
19.7	–	C4m#19-5th4w-NN6-86 (GGCAHPVLPIRSLHFCPH; C4m#19-5th4w-NN6-86)
22.7	–	C4m#19-5th4w-NN6-37 (GGCLHPFLPISSWHFCGR; C4m#19-5th4w-NN6-37)
16.6	–	C4m#19-5th4w-NN6-38 (GGCSHPFLPIFSLHFCPV; C4m#19-5th4w-NN6-38)
19.7	–	C4m#19-5th2w-NNS6-90 (GGCRHPFLPIVSFHFCPF; C4m#19-5th2w-NNS6-90)
5.7	–	C4m#19-5th4w-NN6-36 (GGCRHPYLPIWSAHFCCR; C4m#19-5th4w-NN6-36)
11.9	–	C4m3127-4th-NNS6-60 (GGCWHPFLPISSWHFCGL; C4m3127-4th-NNS6-60) [Clone C4m3127-4th-NNS6-60]
22.4	–	C4m#19-5th2w-NNS6-94 (GGCFHPYLPISSVHFCGR; C4m#19-5th2w-NNS6-94)
16.1	–	C4m#19-5th4w-NN6-14 (GGCWHPFLPIRSVHFCCR; C4m#19-5th4w-NN6-14)
18.4	–	C4m#19-5th2w-NNS6-3 (GGCAHPFLPIFSPHFCPF; C4m#19-5th2w-NNS6-3)
30.1	–	C4m#19-5th4w-NN6-44 (GGCRHPFLPIVSWHFCGR; C4m#19-5th4w-NN6-44)
4.3	–	C4m#19-5th2w-NNS6-61 (GGCCHPWLPIRSVHFCPF; C4m#19-5th2w-NNS6-61)
8.3	–	C4m#19-5th4w-NN6-89 (GGCMHPFLPIISQHFCAF; C4m#19-5th4w-NN6-89)
3.6	–	C4m#19-5th2w-NNS6-80 (GGCLHPFLPIVSWHFCPC; C4m#19-5th2w-NNS6-80)
21.4	–	C4m3127-4th-NNS6-87 (GGCRHPWLPIVSWHFCSR; C4m3127-4th-NNS6-87) [Clone C4m3127-4th-NNS6-87]
20.4	–	C4m#19-5th2w-NNS6-12 (GGCWHPYLPIRSVHFCGR; C4m#19-5th2w-NNS6-12)
25.5	–	C4m#19-5th2w-NNS6-67 (GGCQHPWLPISSWHFCPR; C4m#19-5th2w-NNS6-67)
5.0	–	C4m#19-5th4w-NN6-94 (GGCLHPFLPIYSLHFCPC; C4m#19-5th4w-NN6-94)
